Results: US20170258870A1

Target: myc-tagged LIMP-2
Test: cell-based or functional assay

“wild-type β-glucocerebrosidase (GC), human, overexpressed in cells (from UniProt P04062 40-536) (enzyme)” showed a post-ER form of GC (EndoH resistance) on co-expression of LIMP-2 of 10 fold.
